Assay results reported in patent US20170044609.
Like-named read-outs stand apart in the source and are kept apart here.

Legend:
[1] = biological target: SHARP (SPEN) (Mus musculus) (UniProt Q62504); conditions: UV crosslinked RIP-qPCR
[2] = test system: ΔRS-LBR deletion of amino acids 71-90 (Homo sapiens); conditions: FLAG IP RT-qPCR, UV crosslinked
[3] = test system: PTBP1 (Mus musculus); conditions: UV crosslinked RIP; CLIP site 10859-11344
[4] = test system: hnRNPC; conditions: UV crosslinked RIP; RAP-MS
[5] = test system: RALY; conditions: UV crosslinked RIP; RAP-MS
[6] = test system: RBM15 (Mus musculus); conditions: UV crosslinked RIP; RAP-MS
[7] = test system: CELF1 (Mus musculus); conditions: UV crosslinked RIP; RAP-MS
[8] = test system: MYEF2 (Mus musculus); conditions: UV crosslinked RIP; RAP-MS
[9] = test system: SAF-A (hnRNPU) (Mus musculus); conditions: RAP-MS, UV crosslinked, denaturing
[10] = test system: hnRNPM (Mus musculus); conditions: RAP-MS, UV crosslinked, denaturing

Sequence of UniProt Q62504 (Q62504 whole entry, the tested form may be a part): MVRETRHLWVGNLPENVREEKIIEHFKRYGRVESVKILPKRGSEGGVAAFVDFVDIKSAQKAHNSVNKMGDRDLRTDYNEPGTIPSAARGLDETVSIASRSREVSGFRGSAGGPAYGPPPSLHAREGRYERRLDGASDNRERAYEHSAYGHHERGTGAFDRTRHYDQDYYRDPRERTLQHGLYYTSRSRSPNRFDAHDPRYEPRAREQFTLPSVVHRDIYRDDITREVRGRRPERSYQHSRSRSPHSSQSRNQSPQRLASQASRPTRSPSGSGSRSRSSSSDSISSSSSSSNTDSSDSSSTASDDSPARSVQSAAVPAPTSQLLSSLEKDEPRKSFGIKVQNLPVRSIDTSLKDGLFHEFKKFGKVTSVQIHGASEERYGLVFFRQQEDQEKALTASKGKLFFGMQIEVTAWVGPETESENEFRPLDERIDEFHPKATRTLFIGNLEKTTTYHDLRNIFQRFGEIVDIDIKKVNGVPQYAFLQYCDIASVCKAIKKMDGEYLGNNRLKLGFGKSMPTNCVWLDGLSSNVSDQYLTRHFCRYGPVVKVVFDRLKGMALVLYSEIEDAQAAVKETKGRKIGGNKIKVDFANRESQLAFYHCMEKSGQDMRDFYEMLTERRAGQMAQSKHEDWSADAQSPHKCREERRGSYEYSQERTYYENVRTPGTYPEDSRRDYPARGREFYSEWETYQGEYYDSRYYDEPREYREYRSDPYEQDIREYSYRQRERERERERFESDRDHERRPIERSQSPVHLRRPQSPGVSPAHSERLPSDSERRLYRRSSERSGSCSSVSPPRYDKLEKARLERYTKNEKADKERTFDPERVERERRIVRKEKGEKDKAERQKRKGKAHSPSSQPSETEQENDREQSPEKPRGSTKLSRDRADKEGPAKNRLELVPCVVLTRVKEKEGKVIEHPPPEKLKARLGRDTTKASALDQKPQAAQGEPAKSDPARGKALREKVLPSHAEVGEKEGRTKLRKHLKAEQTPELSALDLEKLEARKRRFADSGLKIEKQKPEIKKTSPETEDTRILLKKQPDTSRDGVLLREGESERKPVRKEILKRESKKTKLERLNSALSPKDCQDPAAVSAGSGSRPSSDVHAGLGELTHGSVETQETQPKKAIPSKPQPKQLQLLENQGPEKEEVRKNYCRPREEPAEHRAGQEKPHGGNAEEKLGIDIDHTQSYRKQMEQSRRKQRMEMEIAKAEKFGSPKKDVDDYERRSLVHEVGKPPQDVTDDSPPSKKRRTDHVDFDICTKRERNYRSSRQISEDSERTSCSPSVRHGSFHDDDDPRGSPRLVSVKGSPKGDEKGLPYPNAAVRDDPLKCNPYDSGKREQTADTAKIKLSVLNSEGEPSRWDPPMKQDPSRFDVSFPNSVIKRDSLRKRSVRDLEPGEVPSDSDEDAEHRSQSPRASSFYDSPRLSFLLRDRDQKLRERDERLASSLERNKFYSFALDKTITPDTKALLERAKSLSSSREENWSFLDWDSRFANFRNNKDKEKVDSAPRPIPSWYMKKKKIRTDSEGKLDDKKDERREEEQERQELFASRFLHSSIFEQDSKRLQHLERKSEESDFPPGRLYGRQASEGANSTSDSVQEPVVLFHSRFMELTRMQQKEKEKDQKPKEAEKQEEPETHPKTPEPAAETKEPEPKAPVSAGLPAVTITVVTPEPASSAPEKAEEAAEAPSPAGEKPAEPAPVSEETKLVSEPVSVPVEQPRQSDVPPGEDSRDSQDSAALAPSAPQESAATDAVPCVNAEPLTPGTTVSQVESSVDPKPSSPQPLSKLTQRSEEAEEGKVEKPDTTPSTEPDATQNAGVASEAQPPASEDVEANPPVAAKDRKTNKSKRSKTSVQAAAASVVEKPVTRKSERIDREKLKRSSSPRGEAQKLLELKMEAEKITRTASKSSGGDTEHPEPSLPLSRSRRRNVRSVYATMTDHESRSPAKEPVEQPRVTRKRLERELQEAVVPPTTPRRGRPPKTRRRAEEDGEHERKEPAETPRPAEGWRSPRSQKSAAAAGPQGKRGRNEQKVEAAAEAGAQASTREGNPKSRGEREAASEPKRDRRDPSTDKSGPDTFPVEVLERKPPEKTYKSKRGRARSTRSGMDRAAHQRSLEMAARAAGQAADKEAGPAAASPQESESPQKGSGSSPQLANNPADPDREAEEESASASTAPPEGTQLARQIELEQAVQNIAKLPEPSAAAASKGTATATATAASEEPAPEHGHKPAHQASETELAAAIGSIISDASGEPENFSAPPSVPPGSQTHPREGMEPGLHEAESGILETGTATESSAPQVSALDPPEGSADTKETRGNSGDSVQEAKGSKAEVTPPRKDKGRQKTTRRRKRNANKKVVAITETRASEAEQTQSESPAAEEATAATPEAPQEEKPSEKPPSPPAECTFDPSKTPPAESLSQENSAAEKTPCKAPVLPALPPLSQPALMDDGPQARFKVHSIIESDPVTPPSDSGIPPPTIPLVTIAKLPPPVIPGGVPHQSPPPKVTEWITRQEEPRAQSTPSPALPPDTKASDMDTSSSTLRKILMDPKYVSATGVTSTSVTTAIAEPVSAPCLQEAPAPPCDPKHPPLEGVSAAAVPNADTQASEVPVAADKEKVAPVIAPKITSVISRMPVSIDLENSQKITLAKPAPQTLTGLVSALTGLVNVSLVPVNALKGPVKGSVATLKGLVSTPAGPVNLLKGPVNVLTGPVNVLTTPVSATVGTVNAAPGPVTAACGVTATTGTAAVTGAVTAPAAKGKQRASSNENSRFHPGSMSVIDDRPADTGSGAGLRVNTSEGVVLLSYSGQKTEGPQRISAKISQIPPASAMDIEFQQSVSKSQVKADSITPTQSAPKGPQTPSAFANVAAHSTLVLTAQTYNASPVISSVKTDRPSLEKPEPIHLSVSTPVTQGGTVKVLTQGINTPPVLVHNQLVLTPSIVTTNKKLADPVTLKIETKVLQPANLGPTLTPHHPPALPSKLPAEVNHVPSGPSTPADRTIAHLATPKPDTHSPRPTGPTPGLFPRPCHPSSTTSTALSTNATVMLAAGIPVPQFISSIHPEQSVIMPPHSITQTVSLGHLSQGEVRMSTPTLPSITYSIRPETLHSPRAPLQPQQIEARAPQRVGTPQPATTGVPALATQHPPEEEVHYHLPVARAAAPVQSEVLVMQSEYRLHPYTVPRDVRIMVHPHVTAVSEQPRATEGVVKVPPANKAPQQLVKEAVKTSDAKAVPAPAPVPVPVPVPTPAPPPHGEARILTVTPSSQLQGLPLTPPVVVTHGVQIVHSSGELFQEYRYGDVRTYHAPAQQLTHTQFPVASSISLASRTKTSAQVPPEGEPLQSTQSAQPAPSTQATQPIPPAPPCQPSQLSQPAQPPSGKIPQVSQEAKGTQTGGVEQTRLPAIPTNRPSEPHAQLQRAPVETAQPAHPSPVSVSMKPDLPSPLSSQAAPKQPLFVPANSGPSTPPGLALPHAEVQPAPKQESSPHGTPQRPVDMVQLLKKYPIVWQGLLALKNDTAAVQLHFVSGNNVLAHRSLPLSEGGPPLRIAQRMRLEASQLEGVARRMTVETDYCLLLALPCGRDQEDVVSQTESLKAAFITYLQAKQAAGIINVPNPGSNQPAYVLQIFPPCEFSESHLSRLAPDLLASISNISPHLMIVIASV

45S pre-rRNA
binding signal (fold over IgG) ([1]; female ES cells): < 1

Neat1 lncRNA
binding signal (fold over IgG) ([1]; female ES cells): < 1

Xist lncRNA
binding signal (fold over IgG) ([1]; RA-treated female ES cells, CLIP site 317-1056): > 45
binding signal (% reduced binding) [2]: 97
binding signal (fold over input) [3]: > 4
binding signal (fold over input) [4]: > 4
binding signal (fold over input) [5]: > 4
binding signal (fold over input) [6]: > 4
binding signal (fold over input) [7]: > 4
binding signal (fold over input) [8]: > 4
binding signal (SILAC ratio Xist/U1) [9]: > 3
binding signal (SILAC ratio Xist/U1) [10]: > 3
